Experimental findings from patent US20090068224A1, “METHOD TO IDENTIFY POLYPEPTIDE TOLL-LIKE RECEPTOR (TLR) LIGANDS” (VAXINNATE CORPORATION, priority 2005, published 2009) are described below.

Chain of TLR2 (O60603 21-784 limits assumed): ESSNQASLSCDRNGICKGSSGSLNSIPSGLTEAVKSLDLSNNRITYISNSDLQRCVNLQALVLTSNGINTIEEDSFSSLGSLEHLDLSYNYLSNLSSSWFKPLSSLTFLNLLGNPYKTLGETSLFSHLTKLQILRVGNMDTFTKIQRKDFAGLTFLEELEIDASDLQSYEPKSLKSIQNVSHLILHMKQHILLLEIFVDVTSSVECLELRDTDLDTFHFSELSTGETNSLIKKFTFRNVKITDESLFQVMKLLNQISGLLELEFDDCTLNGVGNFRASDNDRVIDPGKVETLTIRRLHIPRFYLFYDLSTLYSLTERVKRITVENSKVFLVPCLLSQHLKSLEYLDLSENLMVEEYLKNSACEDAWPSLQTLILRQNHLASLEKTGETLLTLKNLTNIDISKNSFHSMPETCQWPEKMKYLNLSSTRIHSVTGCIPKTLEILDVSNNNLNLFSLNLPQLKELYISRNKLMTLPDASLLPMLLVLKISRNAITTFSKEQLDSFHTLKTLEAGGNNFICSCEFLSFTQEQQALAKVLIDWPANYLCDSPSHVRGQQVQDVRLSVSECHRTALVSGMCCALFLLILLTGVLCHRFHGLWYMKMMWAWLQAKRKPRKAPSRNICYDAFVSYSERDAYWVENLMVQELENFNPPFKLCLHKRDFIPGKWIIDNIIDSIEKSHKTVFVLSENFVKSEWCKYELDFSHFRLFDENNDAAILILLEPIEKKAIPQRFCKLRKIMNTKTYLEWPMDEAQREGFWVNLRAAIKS
Chain of human TLR2 (293.hTLR2 cells) (O60603 21-784): as the sequence (O60603 21-784 limits assumed) above

The first assay concerns the target human TLR2 (293.hTLR2 cells) (Homo sapiens, UniProt O60603). Put plainly: Biopanning of pentameric random peptide phage display library, sequencing of enriched clones. In kind it is binding. To be noted: percentage of all clones sequenced (n = 109) having given peptide sequence; after 4 rounds of biopanning, TLRlo parental HEK293, TLRhi 293.hTLR2; peptides with identity to known microbial proteins. As for the experimental part: Screening of phage display libraries by biopanning: Phage display libraries are screened for peptide TLR ligands according to the following procedure. The phage display library is incubated on an in vitro cultured monolayer of cells that express minimal amounts of the TLR of interest (TLR^lo) in order to reduce non-specific binding, and then transferred to an in vitro suspension culture of cells expressing the relevant TLR (TLR^hi) to capture phage with binding specificity for the target TLR. After several washes with PBS to remove phage remaining unbound to the TLR^hi cells, TLR^hi cell-bound phages are harvested by centrifugation. The TLR^hi cells with bound phage are incubated with E. coli (strain BLT5615) in order to amplify the phage. This process is repeated three or more times to yield a phage population enriched for high affinity binding to the target TLR.
In each round of biopanning, the harvested phage that are bound to TLR^hi cells can be titred prior to amplification, amplified, and then titred again prior to initiation of the next cycle of biopanning. In this way, it is possible to determine the percent (%) of input phage in each cycle that are ultimately harvested from the TLR^hi cells. This calculation provides a round-by-round measure of enrichment within the phage display library for phage that display TLR-binding peptides.
Construction of random peptide libraries (RPL): A pentameric random peptide phage display library of T7SELECT phage was constructed essentially as described in Example 2. A pair of phosphorylated oligonucleotides with the sequence NNBNNBNNBNNBNNB (where N=A/G/C/T, B=G/C/T) flanked at the 5′ and 3′ ends by EcoRI and HindIII sites, respectively, was synthesized. Equimolar amounts of the oligonucleotides were annealed by heating for 5 min at 90° C. with gradual cooling to 25° C. The double stranded DNA was ligated to T7Select 10-3 bacteriophage vector (Novagen) that had been previously digested with EcoRI and HindIII. The ligation reactions were packaged in vitro and titred using the host E. coli strain […] that was grown in M9TB (Novagen), generating 2.5×10^7 clones, representing about 75% coverage of the library. The recombinant phage were subjected to several rounds of amplification to generate a total library of 1.35×10^12 phage, ensuring representation in excess of 5×10^4 fold for each clone in the library.
Sequencing of phage inserts: Individual phage clones from the enriched pool are isolated via plaque formation in E. coli. The DNA inserts of individual phage are amplified in PCR using the commercially available primers T7SelectUP (5′-GGAGCTGTCGTATTCCAGTC-3′; SEQ ID NO: 37; Novagen, catalog #70005) and T7SelectDOWN (5′-AACCCCTCAAGACCCGTTTA-3′; SEQ ID NO: 38; Novagen, catalog #70006). The PCR product DNA is purified using the QIAquick 96 PCR Purification Kit (Qiagen) and subjected to DNA sequencing using T7SelectUP and T7SelectDOWN primers.
We constructed a pentameric random peptide phage display library in T7 phage. This phage library was then screened by biopanning as described in Example 3. For this screen, the TLR^lo cells were parental HEK293 (TLR2^−) cells, and the TLR^hi cells were HEK293 cells ectopically expressing human TLR2 (293.hTLR2, see Example 1, above). Phage bound to 293.hTLR2 cells were harvested, titred, and amplified prior to initiation of the each cycle of panning. In this way, it was possible to determine the % of input phage in each cycle that was ultimately harvested from the TLR2^hi cells.
After 4 rounds of biopanning, individual phage clones from the enriched pool were isolated via plaque formation in E. coli. […] phage clones were randomly picked for sequencing. Of the 109 individual clones examined the motif DPDSG was predominant (see Tables 6 and 7). […]
Consider “NYRRW [peptide TLR2 ligand from phage display]”, for which the “% Abundance” value was 0.9%. “IHVVP [peptide TLR2 ligand from phage display]”: the “% Abundance” value came to 0.9%.

On to “LRQGR [peptide TLR2 ligand from phage display]”, for which the “% Abundance” value was 0.9%. On to “HLLPG [peptide TLR2 ligand from phage display]”, for which the “% Abundance” value came out at 0.9%. On to “IMWFP [peptide TLR2 ligand from phage display]”, for which the “% Abundance” value was 0.9%.

For the substance “IGRFR [peptide TLR2 ligand from phage display]”, the “% Abundance” value turned out to be 2.7%. “AWAGT [peptide TLR2 ligand from phage display]”: the “% Abundance” value turned out to be 0.9%. Regarding “KYMPH [peptide TLR2 ligand from phage display]”, the “% Abundance” value stood at 0.9%.

Regarding “SHIAL [peptide TLR2 ligand from phage display]”, the “% Abundance” value is listed as 0.9%.

Take “GPLLH [peptide TLR2 ligand from phage display]”: the “% Abundance” value was determined as 0.9%. For the substance “MGTLP [peptide TLR2 ligand from phage display]”, the “% Abundance” value is recorded as 1.8%. As to “ADTHQ [peptide TLR2 ligand from phage display]”, the “% Abundance” value was determined as 0.9%. The same measure, in the same setting: next, “MFGVP [peptide TLR2 ligand from phage display]”: 0.9%; “CVWLQ [peptide TLR2 ligand from phage display]”: 0.9%.

As for “VGKND [peptide TLR2 ligand from phage display]”, the “% Abundance” value worked out at 0.9%. In the case of “IYKLA [peptide TLR2 ligand from phage display]”, the “% Abundance” value was found to be 0.9%.

Regarding “RVVAP [peptide TLR2 ligand from phage display]”, the “% Abundance” value was found to be 0.9%.

“THKPK [peptide TLR2 ligand from phage display]”: the “% Abundance” value is 0.9%. Consider “KGWF [peptide TLR2 ligand from phage display]”, for which the “% Abundance” value came to 0.9%.

Staying with this assay, now noted: percentage of all clones sequenced (n = 109) having given peptide sequence; after 4 rounds of biopanning, TLRlo parental HEK293, TLRhi 293.hTLR2; peptides with no homology to known proteins.
For the substance “FCGLG [peptide TLR2 ligand from phage display]”, the “% Abundance” value was determined as 0.92%. The same measure, in the same setting: next, “SRHGR [peptide TLR2 ligand from phage display]”: 0.92%. Take “KCQSF [peptide TLR2 ligand from phage display]”: the “% Abundance” value came out at 0.92%. Consider “EVCAP [peptide TLR2 ligand from phage display]”, for which the “% Abundance” value came out at 0.92%.

On to “RGGF [peptide TLR2 ligand from phage display]”, for which the “% Abundance” value is reported as 0.92%. With “IMRHP [peptide TLR2 ligand from phage display]”, the “% Abundance” value was 0.92%. Consider “MISS [peptide TLR2 ligand from phage display]”, for which the “% Abundance” value is recorded as 0.92%.

On to “GGKLS [peptide TLR2 ligand from phage display]”, for which the “% Abundance” value is 0.92%. “VSEGV [peptide TLR2 ligand from phage display]”: the “% Abundance” value is given as 3.67%.

Take “AGCFS [peptide TLR2 ligand from phage display]”: the “% Abundance” value amounted to 0.92%. The same measure, in the same setting: next, “MRRIL [peptide TLR2 ligand from phage display]”: 0.92%. Take “NPPTT [peptide TLR2 ligand from phage display]”: the “% Abundance” value is 0.92%.

Consider “RGGSK [peptide TLR2 ligand from phage display]”, for which the “% Abundance” value is 3.67%. For “PESGV [peptide TLR2 ligand from phage display]”, the “% Abundance” value is 0.92%. Regarding “SGGLF [peptide TLR2 ligand from phage display]”, the “% Abundance” value was 0.92%. “ACGVY [peptide TLR2 ligand from phage display]”: the “% Abundance” value stood at 0.92%. On the same count and under the same terms, next, “NRTVF [peptide TLR2 ligand from phage display]”: 0.92%; “CGPKL [peptide TLR2 ligand from phage display]”: 0.92%; “AVRLS [peptide TLR2 ligand from phage display]”: 0.92%. On the same count and under the same terms, then “NRFGL [peptide TLR2 ligand from phage display]”, with 0.92%.

Another assay addresses TLR2 (Homo sapiens, UniProt O60603). Put plainly: T7 phage biopanning, 4 rounds (negative on parental HEK293, positive on 293.hTLR2 cells); share of 109 sequenced clones.
Conditions: not given
With MFGVP (peptide), the % ABUNDANCE was 0.9%. VGKND (peptide): the % ABUNDANCE was 0.9%.

Take HLLPG (peptide): the % ABUNDANCE was 0.9%. As for SHIAL (peptide), the % ABUNDANCE is 0.9%. As for IGRFR (peptide), the % ABUNDANCE was determined as 2.7%. For the substance LRQGR (peptide), the % ABUNDANCE was 0.9%.

As to THKPK (peptide), the % ABUNDANCE worked out at 0.9%. In the case of RVVAP (peptide), the % ABUNDANCE stood at 0.9%.

Regarding CVWLQ (peptide), the % ABUNDANCE turned out to be 0.9%. The same measure, in the same setting: next, MISS (peptide): 0.92%; SRHGR (peptide): 0.92%; SGGLF (peptide): 0.92%. With MGTLP (peptide), the % ABUNDANCE came out at 1.8%. On to RGGF (peptide), for which the % ABUNDANCE was found to be 0.92%. Turning to FCGLG (peptide), the % ABUNDANCE came out at 0.92%. As to EVCAP (peptide), the % ABUNDANCE amounted to 0.92%. For the substance IYKLA (peptide), the % ABUNDANCE came to 0.9%. As to GGKLS (peptide), the % ABUNDANCE came to 0.92%. Regarding NRFGL (peptide), the % ABUNDANCE is 0.92%. Same read-out and setting: next, IHVVP (peptide): 0.9%; CGPKL (peptide): 0.92%. Still for that read-out and setting: next, RGGSK (peptide): 3.67%. The same measure, in the same setting: next, ADTHQ (peptide): 0.9%. Consider PESGV (peptide), for which the % ABUNDANCE was determined as 0.92%. Turning to KGWF (peptide), the % ABUNDANCE was 0.9%. On to KYMPH (peptide), for which the % ABUNDANCE worked out at 0.9%. As to AGCFS (peptide), the % ABUNDANCE was 0.92%. In the case of MRRIL (peptide), the % ABUNDANCE came to 0.92%.

For the substance NYRRW (peptide), the % ABUNDANCE was determined as 0.9%.

Turning to IMWFP (peptide), the % ABUNDANCE worked out at 0.9%. For KCQSF (peptide), the % ABUNDANCE stood at 0.92%. Same read-out and setting: then AWAGT (peptide), with 0.9%; and GPLLH (peptide), with 0.9%; and AVRLS (peptide), with 0.92%. In the case of NPPTT (peptide), the % ABUNDANCE stood at 0.92%. In the case of VSEGV (peptide), the % ABUNDANCE was 3.67%. Still for that read-out and setting: next, IMRHP (peptide): 0.92%; NRTVF (peptide): 0.92%.

Consider ACGVY (peptide), for which the % ABUNDANCE stood at 0.92%.
